Experimental data taken from the supplement of paper PMC7125110.
± gives the standard error. This sample holds only a part of the variants without activity.

B1: glmS ribozyme (parent)
chain: AUAAAAGCGCCAGAACUACAGAAAUGUAGUUGACGAGGAGGAGGUUUAUCGAAUUUUCGGCGGAUGCCUCCAAA

Variants of: B1
Test: self-cleavage kobs at 2500 uM GlcN6P; higher = faster cleavage; RNA array
Details: with glucosamine-6-phosphate
In short: (§1)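 Tracking of barcoded ribozyme variants used a hybridised Cy3 probe at 37 °C, after in situ transcription by E. coli RNA polymerase on sequenced MiSeq chips. The flowed solution held 40 μM to 10 mM glucosamine-6-phosphate in HEPES/KCl/Mg(OAc)2 buffer, and imaging ran over ~14 h. kobs was taken from exponential decay fits of normalised per-tile medians, and kcat and KM from weighted Michaelis–Menten fits.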

Variant	self-cleavage kobs at 2500 uM GlcN6P [s⁻¹]
G13A C34G G35A G41A U65A G66U	< 1e-05
A15G G41U U56G C71G	8.85e-05 ± 2e-05
C8U C11U A12U A36C A39G	< 1e-05
U31C G38U G66U	< 1e-05
G29A U55A C67U	0.000242 ± 4.9e-05
C10U C16G C61U C71U	< 1e-05
G35U A36G G63C	< 1e-05
G7U C16U A36G G37U G41U C61A	< 1e-05
A33U A64C C70A	< 1e-05
G7U C68A	< 1e-05
G9U C16G G29C A52U G59U	< 1e-05
G37A A52U U57A	8.64e-05 ± 3.1e-05
A15C U30A A33C G41U C50U C68A C70G	< 1e-05
G13U U55A C58A	0.001 ± 0.00012
U45G U57A	5.34e-05 ± 1.2e-05
G13A A14U U56A	0.000412 ± 0.0001
A6U U31A G37C U54A	< 1e-05
A14U C67A C71U	0.000265 ± 5.2e-05
C10U A42C G62A U65G C68U	< 1e-05
C16U G43A C67A U69A	6.4e-05 ± 2.1e-05
A14C G60U C68U	< 1e-05
G41U G44U C67U U69G	< 1e-05
C11G G35A G40A	< 1e-05

Variant	self-cleavage kobs at 2500 uM GlcN6P [s⁻¹]
A12G U31C U54C	3.97e-05 ± 1.2e-05
U31C C34A G37C	< 1e-05
C34A C50U C67A	< 1e-05
A6C C34U C50G	0.000502 ± 0.00022
A6C G9C G35A A52G C68U	< 1e-05
U54A C61A A64U C68U	8.54e-05 ± 3.8e-05
C10A G59C G66A C67A	< 1e-05
A53U U54C U57C C61G	< 1e-05
G29C U31G	< 1e-05
C8A G35A G38A A53G	< 1e-05
G59U A64C G66C	< 1e-05
G7A C8A G41U	< 1e-05
A15C U45C C50G C68U	< 1e-05
C34A G44U C58G	< 1e-05
G35U A64G C71A	< 1e-05
G7U A12G U69A	< 1e-05
G37U G60U	< 1e-05
A14C A15G C16U	4.99e-05 ± 1.9e-05
G9U A14G U45A C67A	< 1e-05
U57C C58A C67G	0.000113 ± 5.6e-05
U31C G40U A48G C61U	< 1e-05
C16U U57G U65A C70A	0.000271 ± 0.00013
A6C C11G U49G U65C C68G	< 1e-05

Variant	self-cleavage kobs at 2500 uM GlcN6P [s⁻¹]
G9U G32U G38U A42U	< 1e-05
C8U U55G C61U C68A	< 1e-05
A15U G29A G62A	< 1e-05
C16A G32U G43U C61G	< 1e-05
U31C A36G G41A G60U	< 1e-05
C16U A33G U69A C70G	7.7e-05 ± 3.3e-05
U31G G37A C67U	5.28e-05 ± 1.6e-05
A12U C16A U46C	0.000144 ± 4.6e-05
C61G C68G	0.000131 ± 5.8e-05
C11U A64U C68U C71U	< 1e-05
A42U U45A U49G	< 1e-05
A14U G32C C67A	3.21e-05 ± 1.6e-05
U30G G43U U47A U56A	< 1e-05
A52G A53U G66C C67G	< 1e-05
A15G G29A A36G	< 1e-05
A33C A36U G38C	< 1e-05
C11A A12U G40U	4.18e-05 ± 2.1e-05
U30A A39G U69G	5.54e-05 ± 2.2e-05
C16A G38C G40C G44U C67A U69C	< 1e-05
G13U G38C A53U	< 1e-05
A6G U30A A39G	8.54e-05 ± 2.8e-05
G7C A33C A36C G66U	< 1e-05
C8U G13U G59U	< 1e-05

Variant	self-cleavage kobs at 2500 uM GlcN6P [s⁻¹]
G29A A36G G38U C50U	< 1e-05
A14C A15C A36U G37U U49A	< 1e-05
A6U A12C G51A	< 1e-05
A12G A14U U49C C50G C61U	< 1e-05
A36G A48U A64C	< 1e-05
C11A U31A A33G	< 1e-05
A6U G13A G35C A52C	< 1e-05
G9C A15U U47G G51C G63C	< 1e-05
C11U G35C U47G G63A	< 1e-05
C16A G29A C70A	6.39e-05 ± 2.4e-05
A64C G66A	4.39e-05 ± 1.4e-05
G9C A15U G66C C70G	< 1e-05
C34U G40A U57A	< 1e-05
A42U G66A	7.23e-05 ± 2.1e-05
A14G G41C A42U	3.8e-05 ± 1.4e-05
G13U A36C A42G C58U	< 1e-05
A6G C50G C61U	0.000108 ± 3.5e-05
C11A A14G G40U	5.01e-05 ± 1.9e-05
G9U A39U A48U C50A U57C G66A	< 1e-05
A14C G32U U47C C67G	< 1e-05
C10A C11A A39C	< 1e-05
C10U U31A A39U G51C	< 1e-05
C8U A33G A64U	< 1e-05

Variant	self-cleavage kobs at 2500 uM GlcN6P [s⁻¹]
G29U A39U G59C C61A	< 1e-05
G38A G41U G43C A53U G59A A64C	< 1e-05
C8G C16G U56A	< 1e-05
C50A C67A C70U	0.000109 ± 3.7e-05
C10U A33C A36U U54A	< 1e-05
C10A U30C U55C	< 1e-05
A6G U31A	0.000107 ± 3.2e-05
A6G U55A C61G	< 1e-05
A12G A52G G60C U65G	< 1e-05
A6C G7C G63A	< 1e-05
C8U A33C U45A A52U	< 1e-05
G7U C16U U46G	< 1e-05
A15G G51U C61A	< 1e-05
G13C A14G U46A	5.24e-05 ± 1.3e-05
G29U A42U C68A C71U	< 1e-05
C34U G40C U56A G63A	< 1e-05
A33U A52C G63C	< 1e-05
A14G G29A C70G	0.000126 ± 4e-05
U47C C61G	< 1e-05
G35A G41A U54G	< 1e-05
U47G G62U G63U U65G	< 1e-05
A14U U57A A64G	3.21e-05 ± 1.3e-05
A48C G51A C70G	< 1e-05

Variant	self-cleavage kobs at 2500 uM GlcN6P [s⁻¹]
C8G C11A A33U G44A C58U	< 1e-05
G26C U47C G60C	< 1e-05
A33G A42G A52G G60C	< 1e-05
C10G U30C G38C U47A	< 1e-05
G13C A15U C61G	< 1e-05
C8A C10U A39G U57C	< 1e-05
A14U G43C U45G	0.000172 ± 4.1e-05
A15C U69G	7.29e-05 ± 2.2e-05
A14U A48U U54G G60C U69A C71U	4.74e-05 ± 1.9e-05
U55G C58U C70U	4.84e-05 ± 1.7e-05
A6U A36C C67G	< 1e-05
G9C G40U G51U A52U	< 1e-05
C10A A64C C67G	8.61e-05 ± 3.1e-05
G13U A53G C68U	0.000212 ± 3.7e-05
A15G U46A A48U	5.82e-05 ± 2.3e-05
G29C A33U G62A A64U	< 1e-05
C11U A12C G32U	< 1e-05
A39U U47C U56A	0.00121 ± 0.00039
A14G A33U C70G	< 1e-05
A14U U45A C71G	0.000196 ± 5.4e-05
A36C C50U G59A	< 1e-05
C8U C11G G13C	< 1e-05
A42C A48G C50G C61A C70U	< 1e-05

Variant	self-cleavage kobs at 2500 uM GlcN6P [s⁻¹]
A42C U56G U65C C71U	< 1e-05
G29U G32C U47C C67G	< 1e-05
A39U G41U U46A	4.67e-05 ± 1.4e-05
A42C A53C U55C	< 1e-05
A6G C11G U47A	< 1e-05
A12U G41C U46G C68A	< 1e-05
U45G U46A G66U	0.000166 ± 3.9e-05
C8U C16U G37C A39G U54C	< 1e-05
U54G U57A C67G	7.42e-05 ± 2.5e-05
A12G G13C G29A G40A U45C	< 1e-05
A36U G44C U46G	< 1e-05
C34A U55G A64G	< 1e-05
A33C G35U U57C	< 1e-05
C34U C50A C58G G62C	< 1e-05
U2C C61G	< 1e-05
C8G C11A G43A	< 1e-05
A14U C16G G38C G41C U47G	< 1e-05
G38A G40A G44U G60C	< 1e-05
G32C C50U C58G	< 1e-05
G32A G41U C50U U56A G62U	< 1e-05

Variants of: B1
Test: self-cleavage kobs at 10000 uM GlcN6P; higher = faster cleavage; RNA array
Details: with glucosamine-6-phosphate
In short: as §1

Variant	self-cleavage kobs at 10000 uM GlcN6P [s⁻¹]
C8U C11U A12U A36C A39G	< 1e-05
G9U C16G G29C A52U G59U	< 1e-05
G37A A52U U57A	0.000104 ± 1.9e-05
U45G U57A	9.86e-05 ± 1.3e-05
G13A A14U U56A	0.000631 ± 0.00023
A15U G29A G62A	< 1e-05
U31G G37A C67U	0.000189 ± 3.7e-05
A12U C16A U46C	0.000331 ± 7.6e-05
A14U G32C C67A	8.69e-05 ± 2.8e-05
A15G G29A A36G	< 1e-05
C11A A12U G40U	6.34e-05 ± 1.6e-05
A42U G66A	0.000114 ± 2.5e-05
A6G U31A	0.000258 ± 6e-05
U47C C61G	< 1e-05
A14U G43C U45G	0.000252 ± 6.9e-05
A39U G41U U46A	0.000135 ± 2.6e-05
A12U G41C U46G C68A	< 1e-05
U54G U57A C67G	7.25e-05 ± 1.8e-05
G32A G41U C50U U56A G62U	< 1e-05
